Numbering of substitutions follows the chain as printed.
B1: His-tagged Bid (recombinant wild-type Bid) (natural protein)
chain: MDSEVSNGSGLGAEHITDLLVFGFLQSSGCTRQELEVLGRELPVQAYWEADLEDELQTDGSQASRSFNQGRIEPDSESQEEIIHNIARHLAQIGDEMDHNIQPTLVRQLAAQFMNGSLSEEDKRNCLAKALDEVKTAFPRDMENDKAMLIMTMLLAKKVASHAPSLLRDVFHTTVNFINQNLFSYVRNLVRNEMD
B2: BidmIII-3 (G94→ A) (natural protein)
chain: B1 chain with G94A

Key:
[1] = biological target: His-tagged human Bcl-xL lacking 24 amino acids at the COOH terminus (human, UniProt Q07817-1 1-209); assay: co-IP
[2] = biological target: Human Bcl-2 lacking 34 amino acids at the COOH terminus (human, UniProt P10415 1-205); assay: co-IP
Chain of Human Bcl-2 lacking 34 amino acids at the COOH terminus (P10415 1-205): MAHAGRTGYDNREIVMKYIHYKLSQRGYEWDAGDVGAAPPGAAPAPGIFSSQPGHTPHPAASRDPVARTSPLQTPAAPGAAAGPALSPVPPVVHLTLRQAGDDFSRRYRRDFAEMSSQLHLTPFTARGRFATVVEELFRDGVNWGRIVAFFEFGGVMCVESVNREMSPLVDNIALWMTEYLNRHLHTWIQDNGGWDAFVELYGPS

Chain of His-tagged human Bcl-xL lacking 24 amino acids at the COOH terminus (Q07817 1-209): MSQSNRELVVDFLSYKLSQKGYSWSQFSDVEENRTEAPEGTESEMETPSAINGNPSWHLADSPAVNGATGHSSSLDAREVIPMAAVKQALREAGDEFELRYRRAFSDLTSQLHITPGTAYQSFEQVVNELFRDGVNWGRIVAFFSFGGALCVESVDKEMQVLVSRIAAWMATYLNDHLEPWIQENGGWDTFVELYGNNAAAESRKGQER

Binder	binding result [1]	binding result [2]
B1	binds	binds
B2	binds	binds

Source: paper PMC2148190 (The Journal of Cell Biology, 1999)
